PMC4789767, “Application of linker technique to trap transiently interacting protein complexes for structural studies” (Journal of Biological Methods, 2016)

Target: T1, Calmodulin (CaM), wild type, full length (UniProt P0DP26 1-149)
T1 construct: Used without calcium (buffer with 2 mM EGTA); also called WT CaM; apo-CaM; source: purified, as described previously [19]
Experiment: ITC; VP-ITC; 150 µM CaM (WT or mutant) in the syringe, 10 µM full-length Nm/Ng (WT or mutant) in the cell; Buffer A (20 mM imidazole pH 8.0, 100 mM NaCl, 2 mM EGTA); 25°C; 30 injections of 10 µl
Settings: both partners purified

binding result: binds
B1: Neuromodulin (Nm), wild type, full length (natural protein)
chain: MLCCMRRTKQVEKNDEDQKIEQDGVKPEDKAHKAATKIQASFRGHITRKKLKGEKKGDAPAAEAEAKEKDDAPVADGVEKKEGDGSATTDAAPATSPKAEEPSKAGDAPSEEKKGEGDAAPSEEKAGSAETESAAKATTDNSPSSKAEDGPAKEEPKQADVPAAVTDAAATTPAAEDAATKAAQPPTETAESSQAEEEKDAVDEAKPKESARQDEGKEDPEADQEHA
notes: also called WT Nm; source: purified, as described previously [19]
